Experimental data published in patent US5985822A, “Inhibition of glial cell proliferation with N-CAM homophilic peptides” (The Scripps Research Institute, priority 1995, dated 1999).
Values joined by “and” are separate entries in the source; they are usually repeats but may differ in a detail not shown here. Identical values can stand only once.

Key:
[1] = tested on: rat forebrain astrocytes in primary culture; assay: Astrocyte proliferation assay ([3H]-thymidine incorporation normalized to [35S]-methionine); assay type: cell-based; details: for inhibition of proliferation depending on cell density: 2 μg/ml N-CAM
Procedure: Primary cultures of astrocytes were prepared from the forebrains of 4-5 day old neonatal rats. After decapitation and removal of the forebrains from the skull, the meninges were carefully peeled off, and forebrain tissue was triturated in sterile phosphate buffered saline (PBS) using firepolished pipettes. The resulting suspension of tissue fragments was incubated in Hank's balanced salt solution (Gibco BRL) with 2.5 mg/ml trypsin, 1 mM EDTA and 0.1 mg/ml DNase (Boehringer) at 37° C. for 15 minutes. […] The pellet was resuspended in serum free medium (SFM) consisting of Dulbecco's Modified Eagle Medium (D-MEM), 2 mM L-glutamine, 50 U/ml penicillin G sodium and 50 μg/ml streptomycin sulfate (all from Gibco BRL) supplemented by 10% (vol/vol) fetal bovine serum (FBS). The cells were transferred to a standard 100 mm tissue culture dish (Falcon) and incubated at 37° C. for 1-2 hours. After mild shaking, the supernatant containing unattached cells was transferred to a 100 mm collagen-coated dish. […] Cell samples were checked regularly for the expression of GFAP, a marker for astrocytes.
After cell attachment, the culture medium was exchanged for SFM. In antisense experiments, oligonucleotides were added at the same time (T=0). […] After another 12 hours (at T=60), [^3 H]-thymidine (New England Nuclear, 20 Ci/mmol) was added (0.38 μM, 10 μCi/ml). Following an additional 12 hours (T=72), the wells were drained, counts precipitated by ice-cold […] trichloroacetic acid, and the plates left to dry. Counts were solubilized overnight by adding 100 μl 1 N KOH to each well, neutralized with 100 μl 1 N HCl, transferred to liquid scintillation vials and counted in 3 ml of Beckman Ready Safe liquid scintillation cocktail on a Packard 1600 TR counter. […] In this paper, proliferation is expressed as [^3 H]-thymidine incorporation normalized to [35]-methionine incorporation and calculated as [^3 H] dpm/ [35] dpm.

[2] = tested on: dividing astrocytes in cerebral cortex, hippocampus or striatum; assay: In vivo labeling index of dividing astrocytes (BrdU with GFAP or S100) after stab lesion with infusion; set-up: species or system rat; details: for Labeling Index (Experimental): N-CAM 250 μg/ml, 3rd Ig domain 5 mg/ml, N-CAM peptide 1 mg/ml, 3 μl infused, n=3
Procedure: Samples were injected into the brains of rats (Wistar Albino, Male, 200-250 g, Charles River, anesthetized with xylazine (12 mg/kg) and ketamine (90 mg/kg) through a 26 gauge needle. The needle point was placed at the stereotactic coordinates of either the hippocampus, cerebral cortex or striatum (Table 2). Bilateral injections of 3-4 μl were made using an Hamilton syringe. Each animal received an infusion of either the purified rat N-CAM (250 μg/ml), the third Ig domain of chicken N-CAM (5 mg/ml), or the rat N-CAM peptide KHIFSDDSSE (SEQ ID NO 2) (1 mg/ml) in PBS into one hemisphere; the other hemisphere was infused with the random peptide (SFSISDEDHK (SEQ ID NO 9), 1 mg/ml in PBS) as a control. The experimental and control sides varied between animals and choice of side had no significant effect on the results. Three μl of each protein or peptide was infused at a rate of 0.2 μl per minute after which the needle was left in place for 5 minutes and then removed. In one experiment, a group of animals received basic fibroblast growth factor (bFGF, 450 ng) in the solutions which contained either the random peptide or the purified N-CAM.
The samples were either purified N-CAM in phosphate buffered saline (PBS), N-CAM peptide KHIFSDDSSE (SEQ. ID. NO. 2) (1 mg/ml or 10 mg/ml) in PBS, or the corresponding random peptide SFSISDEDHK (SEQ ID NO 9) (1 mg/ml) (see Example 3 above). The injection rate was about 0.2 μl/min; the needle was left in place for 5 minute after the injection. Each animal received either the purified N-CAM or the N-CAM peptide injected into one side of the brain and the corresponding structure on the other side was injected with the random peptide as a control.
Three animals were examined for each treatment and brain region described. Animals were maintained for a postinjection survival time of about 70-72 hours. During that time they received five injections of bromodeoxyuridine (Brdu) dissolved in 0.007 N NaOH (120 mg/kg, intraperitoneal). Two of the three animals that had been injected in the hippocampus received Brdu approximately 18, 28, 42, 52, and 70 hours after the stereotactic surgery. All of the animals that had been injected in the cerebral cortex or the striatum and one animal injected in the hippocampus received Brdu approximately 2, 18, 28, 42, and 52 hours after the stereotactic surgery.
Animals were perfused under anesthesia with about 30 ml of ice-cold PBS followed by about 400 ml of ice-cold […] in PBS. The brains were then removed and postfixed for 2-16 hours in 4% paraformaldehyde in PBS then placed in succeeding solutions of ascending concentrations of sucrose (12%, 18%, and 24%). The brains were then sectioned on a cryostat at a thickness of 10 μm.
Non-specific binding on the sections was blocked by incubation in 8% fetal bovine serum (FBS) in PBS. Sections were then incubated in polyclonal antibody to glial fibrillary acidic protein (GFAP; 1:100 dilution, Dako) in 0.2% Triton X-100, 8% FBS/PBS for 24 - 48 hr at 4° C. The sections were processed using a biotinylated secondary antibody and the Vectastain ABC kit (Vector), and stained with a diaminobenzidine peroxidase substrate kit from Vector or Pierce. The sections were then incubated for 6 minutes in a solution of Proteinase K (Dako), rinsed and incubated in 2 N HCL for 20 minutes at 37° C. The sections were rinsed and blocked in 8% FBS/PBS and incubated in a monoclonal antibody to Brdu (1:40 dilution, Dako), 0.01% Triton X-100, 8% fetal bovine serum/PBS for 24-48 hr at 4° C. The sections were processed using a biotinlyated secondary antibody and the Vectastain ABC kit (Vector), and stained with a VIP peroxidase substrate kit from Vector giving the Brdu positive cells a red color. The sections were then rinsed in PBS and coverslipped in glycerol/PBS.
GFAP positive cells and cells positive for both GFAP and BRDU were counted under a Zeiss Axiophot light microscope. […]

C6 glioma cells = assay: Proliferation of C6 glioma cells in SFM at low cell densities; assay type: cell-based; details: externally added N-CAM

B1: N-CAM: neural cell adhesion molecule purified from early postnatal rat brains by affinity chromatography, mainly polysialylated embryonic form (protein, UniProt P13596 20-858, looked up)
Neural cell adhesion molecule …: LQVDIVPSQGEISVGESKFFLCQVAGDAKDKDISWFSPNGEKLSPNQQRISVVWNDDDSSTLTIYNANIDDAGIYKCVVTAEDGTQSEATVNVKIFQKLMFKNAPTPQEFKEGEDAVIVCDVVSSLPPTIIWKHKGRDVILKKDVRFIVLSNNYLQIRGIKKTDEGTYRCEGRILARGEINFKDIQVIVNVPPTVQARQSIVNATANLGQSVTLVCDADGFPEPTMSWTKDGEPIENEEEDDEKHIFSDDSSELTIRNVDKNDEAEYVCIAENKAGEQDASIHLKVFAKPKITYVENQTAMELEEQVTLTCEASGDPIPSITWRTSTRNISSEEKASWTRPEKQETLDGHMVVRSHARVSSLTLKSIQYTDAGEYICTASNTIGQDSQSMYLEVQYAPKLQGPVAVYTWEGNQVNITCEVFAYPSATISWFRDGQLLPSSNYSNIKIYNTPSASYLEVTPDSENDFGNYNCTAVNRIGQESLEFILVQADTPSSPSIDRVEPYSSTAQVQFDEPEATGGVPILKYKAEWKSLGEEAWHSKWYDAKEANMEGIVTIMGLKPETRYAVRLAALNGKGLGEISAATEFKTQPVREPSAPKLEGQMGEDGNSIKVNLIKQDDGGSPIRHYLVKYRALASEWKPEIRLPSGSDHVMLKSLDWNAEYEVYVVAENQQGKSKAAHFVFRTSAQPTAIPANGSPTAGLSTGAIVGILIVIFVLLLVVMDITCYFLNKCGLLMCIAVNLCGKAGPGAKGKDMEEGKAAFSKDESKEPIVEVRTEEERTPNHDGGKHTEPNETTPLTEPEKGPVETKSEPQESEAKPAPTEVKTVPNEATQTKENESKA
modifications: polysialylated embryonic form
inhibition of proliferation depending on cell density ([1]; higher cell density 28×10^4 cells/cm^2, confluent): virtually ineffective
inhibition of proliferation depending on cell density ([1]; lower cell density 1.8×10^4 cells/cm^2): Inhibition was maximal
N-CAM Alone ([1]; N-CAM 2 μg/ml, parallel control of each drug experiment (Table 5)): 32.5 % of SFM Control and 34 % of SFM Control
maximal suppression of proliferation ([1]; N-CAM 10 μg/ml in SFM, 7×10^4 cells/cm^2, three preparations): > 90%
effect on astrocyte proliferation (in words) ([1]; added to astrocyte cultures in SFM): inhibited their proliferation in a concentration dependent manner
suppressive effect of N-CAM added together with growth stimulus ([1]; with 1% FBS or 20 ng/ml bFGF): suppressive effect similar in magnitude to that observed in SFM
Percent Difference of labeling index, experimental vs control ([2]; cerebral cortex): -52.1 ± 4.5%
Labeling Index (Experimental) ([2]; cerebral cortex): 10.2 ± 1.5%
effect on mitogenic effects of bFGF in vivo ([2]; cortical lesion, bFGF 450 ng co-infused): able to oppose the mitogenic effects of bFGF
Percent Difference of labeling index, experimental vs control ([2]; hippocampus): -25.2 ± 1.6%
Labeling Index (Experimental) ([2]; hippocampus): 14.6 ± 2.3%
inhibition of astrocyte proliferation ([2]; infusion into cerebral cortex at 100 μg/ml): 0-10%
Percent Difference of labeling index, experimental vs control ([2]; striatum): -20.8 ± 2.1%
Labeling Index (Experimental) ([2]; striatum): 20.7 ± 0.7%
rate of proliferation of C6 glioma cells (C6 glioma cells): decrease their rate of proliferation
